Values quoted from earlier work, collected in publication PMC8442009.

Columns and labels:
[1] = target: IL-4Rα (Homo sapiens) (UniProt P24394)
[2] = target: IL-4Rα/γc (Homo sapiens) (UniProt P24394)
[3] = target: γc (Homo sapiens) (UniProt P31785)
UniProt P31785, sequence (P31785 23-262): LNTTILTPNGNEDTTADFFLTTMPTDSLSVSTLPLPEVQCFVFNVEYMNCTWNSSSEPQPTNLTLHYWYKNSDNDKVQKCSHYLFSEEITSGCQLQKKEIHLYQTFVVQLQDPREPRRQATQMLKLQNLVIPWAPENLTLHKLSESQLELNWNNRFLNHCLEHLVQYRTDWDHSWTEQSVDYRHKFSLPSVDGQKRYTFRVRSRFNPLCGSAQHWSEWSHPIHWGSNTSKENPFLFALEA

For IL-4 (from UniProt P05112), the Kd [1] is given as 0.266 nM and the Kd [2] is given as 0.079 nM.
For IL-4-IL-4Rα (from UniProt P05112), the Kd [3] is listed as over 500 nM.
